Source: publication PMC6393304 (Nucleic Acids Research, 2018)
Positions count from the first letter of the chain named. Numbers in names are those of the source.

B1: C-terminal bZIP domain of human C/EBPβ (residues 269–344), wild type (domain or fragment)
chain: HMKHSDEYKIRRERNNIAVRKSRDKAKMRNLETQHKVLELTAENERLQKKVEQLSRELSTLRNLFKQLPEPLLASSGH
B2: C-terminal bZIP domain of human C/EBPβ (residues 269–344), V285A variant (domain or fragment)
chain: B1 chain with V19A

Target: the molecule itself
Assay: crystal structure

Protein	binding result
B1	binds
B2	binds
